Results published in publication PMC4116807 (Biochimica et biophysica acta, 2014).

Biological target: the molecule itself
Assay: AUC

B1: periplasmic sensor domain of the histidine kinase CusS (CusS 39-187) (domain or fragment, Escherichia coli W3110)
chain: VKVHFAEQDINDLKEISATLERVLNHPDETQARRLMTLEDIVSGYSNVLISLADSQGKTVYHSPGAPDIREFTRDAIPDKDAQGGEVYLLSGPTMMMPGHGHGHMEHSNWRMINLPVGPLVDGKPIYTLYIALSIDFHLHYINDLMNKLEGSS
- stoichiometry N: 2
